Publication PMC5757785
pKd: −log10 of the molar value.

Molecular target: FlAsH-tagged Lys6-linked diubiquitin (UniProt P0CG47)
Assay: fluorescence polarisation

- pKd: 5.40
Substance: USP30^c13i (inactive USP30 construct 13, C77A) (from UniProt Q70CQ3 1-517) (enzyme)
